What all share (assay): ITC
The target of experiment [1] is purified OsHPP10-HMA (rice).
For experiment [2], the target named is purified OsHPP09-HMA (rice).
In experiment [3] the target is purified OsHIPP21-HMA (rice).
In experiment [4] the target is purified OsHPP11-HMA (rice).

Our source for the Kd values is article doi:10.1101/2025.07.11.664054.

With “recombinant AVR-Pia (from UniProt B9WZW9 1-85) (natural protein)”, the Kd worked out at 5.26 µM in experiment [1], 115 nM in experiment [2], 1290 nM in experiment [3] and 772 nM in experiment [4].
